Results as given in US20230399406A1.

Target: human PD-L1 (programmed death-ligand 1) (human) (UniProt Q9NZQ7)
Test: cell-based or functional assay

Chain of UniProt Q9NZQ7 (Q9NZQ7 19-290): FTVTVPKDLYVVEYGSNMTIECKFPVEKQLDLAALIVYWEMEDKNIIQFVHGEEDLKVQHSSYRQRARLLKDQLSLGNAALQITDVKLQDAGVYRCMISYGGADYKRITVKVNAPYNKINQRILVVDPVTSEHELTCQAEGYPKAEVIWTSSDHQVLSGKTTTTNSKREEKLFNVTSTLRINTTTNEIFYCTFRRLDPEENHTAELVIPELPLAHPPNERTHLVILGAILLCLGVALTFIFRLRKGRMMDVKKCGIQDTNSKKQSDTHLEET

Untargeted (BcII10 VHH) chimera
STAT1 phosphorylation (phospho STAT1 MFI, FACS) in MDA-MB-321 cells: 100 ng/mL
